What is called Km is the concentration of substrate that gives half-maximal velocity.

Consider 1 protein from article PMC4659947, “Asparagine requirement in Plasmodium berghei as a target to prevent malaria transmission and liver infections” (Nature Communications, 2015).

Substrate in this data set: N[C@@H](CC(=O)O)C(=O)O
In words: purified protein. The data set is classed as biochemical, Plasmodium berghei. The settings on record: 5 mM glutamine as amino donor, 10 mM ATP, 10 mM MgCl2, 50 mM Tris pH 8.0.

B1: PbAS (recombinant P. berghei asparagine synthetase) (Plasmodium berghei ANKA) (protein)
chain: MCGILAIFHSSIETNRLRRKALRLSKILRHRGPDWNGIVVEENGDGTTNVLTHERLSIVDVLSGQQPLYDDKKEICLTINGEIYNHLELRKLVKQDILDALKSKSDCAIIPNLYKIYKEKLPCMLDGIFAGVISDKKYNTFFAFRDPIGICPLYIGYAADGSIWFASEFKALRIYCVRYVAFPPGHYYMCNNGKGEFVRYYNPNWWKLNSPIPNNKIDLEKIRITLENAVIKRLMGDVPFGVLLSGGLDSSIIASIISRHLKSIQTGTINNINGACVGKNNKNLNALKSFSIGLKDSPDLKAAKEVSDFLNTDHTEFHFTVDQGIDTLHDVIYHIETYDITTIRASTPMYILSRLIKSSCIKMVLSGEGSDEIFGGYLYFHKAPNAEEFHRELQRKIHDLHIYDVLRANKSTMAFGIEARVPFLDLEFLDLVMNIDPKEKMCSNNRIEKDILRRAFSGYLPDHILYRQKEQFSDGVGYNWIDGLKEYAEKKVSDAQFSRAPFLFPYNTPKTKEAYLYRCIFYQCFPEQCAQEFVPEGPSIACSTSKAIEWDEQFKVNPDQSGRYVLDVHKHSKNIEDIKAA
notes: full-length cDNA without stop codon in pET-20b(+), BamHI/XhoI, C-terminal 6xHis kept, E. coli Rosetta2DE3pLysS, Ni-NTA, 67 kDa; domains 1-202 and 203-581
Take B1: the Michaelis-Menten constant (Km) was 0.26 ± 0.05 mM.
